In US20160369009A1 (published 2016) one finds Kd, koff and kon data, which are given here for four molecules.

Assay [1] deals with T1, human kallikrein-2 (hK2) (human, UniProt P20151 25-261).
T1 construct: The mature protein is said to be underlined, but the underlining is not recoverable from the text; In the assay hK2 was amine-coupled to a CM4 chip; also called human glandular kallikrein 2; antigen hK2
The assay is described as follows: SPR, Biacore 3000, hK2 on CM4 chip, mean KD from kon and koff. As to the method:
(§1) All binding experiments were performed on CM4 chip on a Biacore 3000 instrument. The chip and all the reagents needed for activation, immobilization, deactivation, binding and regeneration were purchased from GE Healthcare and used according to the guidelines from the manufacturer.
For orientation: Surface plasmon resonance follows binding to a sensor surface in real time, without labels.

For assay [2], the target named is T1, human kallikrein-2 (hK2). The experiment in a line: SPR, Biacore 3000, hK2 on CM4 chip, mean of channels fc2 and fc3. As to the method: as §1
(§2) The dissociation phase data was fitted and the dissociation rate constants (koff) were estimated (see Table 2).

The target of assay [3] is T1, human kallikrein-2 (hK2). The assay is described as follows: SPR, Biacore 3000, hK2 on CM4 chip, antibody 6.25-100 nM, mean of 18/18 fitted experiments. How it is done: as §1
(§3) In order to estimate the association rate constants, the dissociation rate constants (Table 2) were used in the fitted equations.
(§4) All fitted data was used in order to calculate an average value of the association rate constant and the standard deviation for each antibody (see Table 3).

Assay [4] concerns the target T1, human kallikrein-2 (hK2). The assay is described as follows: SPR, Biacore 3000, hK2 amine-coupled on CM4 chip, channel fc2, 50 nM antibody, 480 min dissociation. How it is done:
as §1, §2

The target of assay [5] is T1, human kallikrein-2 (hK2). The experiment in a line: SPR, Biacore 3000, hK2 amine-coupled on CM4 chip, channel fc3, 50 nM antibody, 480 min dissociation. As to the method:
as §1, §2

The target in assay [6] is T1, human kallikrein-2 (hK2). The experiment in a line: SPR, Biacore 3000, hK2 on CM4 chip, antibody 6.25-100 nM, mean of 15/18 fitted experiments. As to the method:
as §1, §3, §4

Assay [7] has as its target T1, human kallikrein-2 (hK2). The experiment in a line: SPR, Biacore 3000, hK2 on CM4 chip, antibody 6.25-100 nM, mean of 17/18 fitted experiments. As to the method: as §1, §3, §4

T1 sequence (P20151 25-261 limits assumed): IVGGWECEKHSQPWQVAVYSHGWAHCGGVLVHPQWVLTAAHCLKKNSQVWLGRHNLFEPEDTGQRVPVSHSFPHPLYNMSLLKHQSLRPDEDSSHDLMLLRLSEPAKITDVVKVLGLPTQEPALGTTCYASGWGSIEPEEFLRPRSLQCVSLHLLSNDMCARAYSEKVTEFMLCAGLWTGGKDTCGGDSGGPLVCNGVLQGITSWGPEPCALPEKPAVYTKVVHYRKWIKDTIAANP

B1: murine 11B6 antibody (m11B6), parent murine anti-hK2 monoclonal antibody (antibody, mouse IgG1, kappa, V domains shown)
VH: DVQLQESGPGLVKPSQSLSLTCTVTGNSITSDYAWNWIRQFPGNRLEWMGYISYSGSTTYSPSLKSRFSITRDTSKNQFFLQLNSVTPEDTATYFCATGYYYGSGFWGQGTLVTVSS
VL: DIVLTQSPASLAVSLGQRATISCRASESVEYFGTSLMHWYRQKPGQPPKLLIYAASNVESGVPARFSGSGSGTDFSLNIQPVEEDDFSMYFCQQTRKVPYTFGGGTKLEIKR
notes: Whole murine IgG obtained from the University of Turku; also called mAb 11B6; ml 1B6
What is called Kd is the free concentration of one partner at which half of the binding sites on the other are occupied at equilibrium, for simple one-to-one binding. Low values mean higher affinity, high ones lower affinity. The term koff denotes the first-order rate constant of dissociation. One may read the kon as the rate constant with which the complex forms. A lower kon goes with slower complex formation. As for B1, in assay [1], the dissociation constant Kd is 0.19 nM. Also, the values for the dissociation rate constant (koff) in assay [2], in assay [4] and in assay [5] were 3.4e-05 s⁻¹, 1.9e-05 s⁻¹ and 4.9e-05 s⁻¹, respectively. For the same molecule, the kon in assay [3] amounted to 248000 M⁻¹ s⁻¹.

B2: h11B6-DFO (humanised 11B6 conjugated with deferoxamine) (antibody, human IgG1, kappa, V domains shown)
VH: QVQLQESGPGLVKPSDTLSLTCAVSGNSITSDYAWNWIRQPPGKGLEWIGYISYSGSTTYNPSLKSRVTMSRDTSKNQFSLKLSSVTAVDTAVYYCATGYYYGSGFWGQGTLVTVSS
VL: DIVLTQSPDSLAVSLGERATINCKASESVEYFGTSLMHWYQQKPGQPPKLLIYAASNRESGVPDRFSGSGSGTDFTLTISSLQAEDVAVYYCQQTRKVPYTFGQGTKLEIKR
modifications: DFO (deferoxamine) chelator coupled; residues and chain not stated
notes: This is the h11B6 IgG1/kappa carrying DFO; also called h1166-DFO; DFO-h11B6
B2 yielded a Kd in assay [1] of 0.54 nM. Further, the off-rate (koff) was determined as 5.7e-05 s⁻¹ in assay [2], 5.8e-05 s⁻¹ in assay [4] and 5.5e-05 s⁻¹ in assay [5]. The molecule also displayed an on-rate (kon) in assay [3] of 111000 M⁻¹ s⁻¹.

B3: humanised 11B6 antibody (h11B6), IgG1/kappa (antibody, V domains shown)
VH: QVQLQESGPGLVKPSDTLSLTCAVSGNSITSDYAWNWIRQPPGKGLEWIGYISYSGSTTYNPSLKSRVTMSRDTSKNQFSLKLSSVTAVDTAVYYCATGYYYGSGFWGQGTLVTVSS
VL: DIVLTQSPDSLAVSLGERATINCKASESVEYFGTSLMHWYQQKPGQPPKLLIYAASNRESGVPDRFSGSGSGTDFTLTISSLQAEDVAVYYCQQTRKVPYTFGQGTKLEIKR
notes: Expressed transiently in HEK293 cells; also called h1186
Turning to B3, the Kd in assay [1] amounted to 0.65 nM. The koff in assay [2] was found to be 6.7e-05 s⁻¹; in assay [4], 6.4e-05 s⁻¹; in assay [5], 6.9e-05 s⁻¹. The molecule also came in with a kon in assay [6] of 117000 M⁻¹ s⁻¹.

B4: h11B6-DTPA (humanised 11B6 conjugated with DTPA chelator) (antibody, V domains shown)
VH: QVQLQESGPGLVKPSDTLSLTCAVSGNSITSDYAWNWIRQPPGKGLEWIGYISYSGSTTYNPSLKSRVTMSRDTSKNQFSLKLSSVTAVDTAVYYCATGYYYGSGFWGQGTLVTVSS
VL: DIVLTQSPDSLAVSLGERATINCKASESVEYFGTSLMHWYQQKPGQPPKLLIYAASNRESGVPDRFSGSGSGTDFTLTISSLQAEDVAVYYCQQTRKVPYTFGQGTKLEIKR
modifications: DTPA chelator coupled; residues and chain not stated
notes: This is the h11B6 IgG1/kappa carrying a chelator; also called h1166-DTPA; H1166-DTPA
For B4, binding in assay [1] was put at a Kd of 0.93 nM. Further, the koff stood at 0.000127 s⁻¹ in assay [2], 6.3e-05 s⁻¹ in assay [4] and 0.000191 s⁻¹ in assay [5]. This molecule returned a kon in assay [7] of 182000 M⁻¹ s⁻¹.
